The target in assay [1] is SARS-CoV2 S1 protein (S1 domain of the spike protein) (SARS-Cov-2, UniProt P0DTC2 16-685).
Assay [2] has as its target SARS-CoV2 RBD (receptor binding domain of the spike protein) (SARS-Cov-2, UniProt P0DTC2 319-541).

B1: 212434 (SEQ ID NO: 1) (designed binder)
chain: NAAVLDIAQHSATEEIWWLPNLTKQQKVWFIMSLTQDPSVSKEVLGEAQKLNDSQAPK
Turning to B1, the values for the dissociation constant (Kd) in assay [1] and in assay [2] were 3.8 nM and 10.2 nM, respectively.

B2: 212522 (SEQ ID NO: 19) (designed binder)
chain: IAAKFDEAQQAAFYEILHLPNLTELQRNWFIQLLRDDPSVSLQVLGHAQYLNDSQAPKIAAKFDEAQQYAFYQILHLHNLTEEQRNAFIQSLRDDPSVSHEVLGEAKKLNESQAPK
On to B2, for which the Kd worked out at 24.1 nM in assay [1] and 27.1 nM in assay [2].

The values above are taken from patent publication US20240117010A1 (NAVIGO PROTEINS, published 2024).
